{"source": "paper PMC3913652", "about": "(PLoS ONE, 2014)", "binders": {"B1": {"name": "dog albumin (natural protein, UniProt P49822 25-608, looked up)", "chain": "EAYKSEIAHRYNDLGEEHFRGLVLVAFSQYLQQCPFEDHVKLAKEVTEFAKACAAEESGANCDKSLHTLFGDKLCTVASLRDKYGDMADCCEKQEPDRNECFLAHKDDNPGFPPLVAPEPDALCAAFQDNEQLFLGKYLYEIARRHPYFYAPELLYYAQQYKGVFAECCQAADKAACLGPKIEALREKVLLSSAKERFKCASLQKFGDRAFKAWSVARLSQRFPKADFAEISKVVTDLTKVHKECCHGDLLECADDRADLAKYMCENQDSISTKLKECCDKPVLEKSQCLAEVERDELPGDLPSLAADFVEDKEVCKNYQEAKDVFLGTFLYEYARRHPEYSVSLLLRLAKEYEATLEKCCATDDPPTCYAKVLDEFKPLVDEPQNLVKTNCELFEKLGEYGFQNALLVRYTKKAPQVSTPTLVEVSRKLGKVGTKCCKKPESERMSCAEDFLSVVLNRLCVLHEKTPVSERVTKCCSESLVNRRPCFSGLEVDETYVPKEFNAETFTFHADLCTLPEAEKQVKKQTALVELLKHKPKATDEQLKTVMGDFGAFVEKCCAAENKEGCFSEEGPKLVAAAQAALV"}, "B2": {"name": "rat albumin (natural protein, UniProt P02770 25-608, looked up)", "chain": "EAHKSEIAHRFKDLGEQHFKGLVLIAFSQYLQKCPYEEHIKLVQEVTDFAKTCVADENAENCDKSIHTLFGDKLCAIPKLRDNYGELADCCAKQEPERNECFLQHKDDNPNLPPFQRPEAEAMCTSFQENPTSFLGHYLHEVARRHPYFYAPELLYYAEKYNEVLTQCCTESDKAACLTPKLDAVKEKALVAAVRQRMKCSSMQRFGERAFKAWAVARMSQRFPNAEFAEITKLATDVTKINKECCHGDLLECADDRAELAKYMCENQATISSKLQACCDKPVLQKSQCLAEIEHDNIPADLPSIAADFVEDKEVCKNYAEAKDVFLGTFLYEYSRRHPDYSVSLLLRLAKKYEATLEKCCAEGDPPACYGTVLAEFQPLVEEPKNLVKTNCELYEKLGEYGFQNAVLVRYTQKAPQVSTPTLVEAARNLGRVGTKCCTLPEAQRLPCVEDYLSAILNRLCVLHEKTPVSEKVTKCCSGSLVERRPCFSALTVDETYVPKEFKAETFTFHSDICTLPDKEKQIKKQTALAELVKHKPKATEDQLKTVMGDFAQFVDKCCKAADKDNCFATEGPNLVARSKEALA"}, "B3": {"name": "monkey albumin (natural protein, UniProt A2V9Z4 25-608, looked up)", "chain": "DTHKSEVAHRFKDLGEEHFKGLVLVAFSQYLQQCPFEEHVKLVNEVTEFAKTCVADESAENCDKSLHTLFGDKLCTVATLRETYGEMADCCAKQEPERNECFLQHKDDNPNLPPLVRPEVDVMCTAFHDNEATFLKKYLYEVARRHPYFYAPELLFFAARYKAAFAECCQAADKAACLLPKLDELRDEGKASSAKQRLKCASLQKFGDRAFKAWAVARLSQKFPKAEFAEVSKLVTDLTKVHTECCHGDLLECADDRADLAKYMCENQDSISSKLKECCDKPLLEKSHCLAEVENDEMPADLPSLAADYVESKDVCKNYAEAKDVFLGMFLYEYARRHPDYSVMLLLRLAKAYEATLEKCCAAADPHECYAKVFDEFQPLVEEPQNLVKQNCELFEQLGEYKFQNALLVRYTKKVPQVSTPTLVEVSRNLGKVGAKCCKLPEAKRMPCAEDYLSVVLNRLCVLHEKTPVSEKVTKCCTESLVNRRPCFSALELDEAYVPKAFNAETFTFHADMCTLSEKEKQVKKQTALVELVKHKPKATKEQLKGVMDNFAAFVEKCCKADDKEACFAEEGPKFVAASQAALA"}}}
{"biological_target": "T1, [Leu^14]exenatide-ABD (leucine substituted for methionine at position 14 (stands in the printed …, C-terminus -OH (Table 1)))", "T1 construct": "numbers count on: the exenatide peptide; Gly-Gly-Ser tri-peptide linker; 88 residue peptide; also called ABD fused exenatide; source: synthetic peptide (solid phase, reverse-phase HPLC)", "assay": "SPR; BioRad ProteOn XPR36, GLC sensor chip, 25°C; albumins amine-coupled (2000-5000 RU), peptides flowed over at 3 concentrations in duplicate; 10 mM HEPES pH 7.4, 150 mM NaCl, 3 mM EDTA, 0.005% Tween-20, 0.2 mg/ml ovalbumin; highest concentration dissociated for 3 hours; 1:1 (Langmuir) model with correction for mass transfer", "conditions": "both partners purified", "units": {"Kd": "nM"}}
{"binder": "B1", "Kd": 0.0981}
{"binder": "B2", "Kd": 0.0082}
{"binder": "B3", "Kd": 0.0402}
